# Measurements as given in the nanobody polyreactivity screen of Harvey et al. (2022).
# Assay: yeast display, Sf9 membrane polyspecificity reagent, FACS + sequencing; frameworks hold sequencing errors
# Summary of the method: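 A synthetic nanobody library was expressed on Saccharomyces cerevisiae BJ5465 by galactose induction for 36–48 hours. The library was stained for 1 hour at 4 °C with 10% biotinylated, detergent-solubilized Sf9 membrane reagent and enriched with streptavidin microbeads before FACS. Low and high (top ~1%) gates were set on anti-HA fluorescence for expression and streptavidin fluorescence for reagent binding, and each polyreactivity label reflects the gate of origin.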
row,Sequence,polyreactivity (PSR sort gate)
1,QVQLVESGGGLVQAGGSLRLSCAASGIIFGYYAMGWYRQAPGKERELVATINWDGGSTYYADSVKGRFTISRDNAKNTVYLQMNSLKPEDTAVYYCAAAKPVQYRIAQAHVGYWGQGTQVTVSS,low polyreactivity
2,QVQLVESGGGLVQAGGSLRLSCAASGIIFHGYAMGWYRQAPGKERDLVAAITASDGDTYYADSVKGRFTISRDNAKNTVYLQMNSMKPEDTAVYYCAADFWYYHTRMDYWGQGTQVTVSS,low polyreactivity
3,QVQLVESGGGLVQAGGSLRLSCAASGIIFHGYAMGWYRQAPGKERELVAAITNSGGRTYYADSVKGRFTISRDNAKNTVYLQMNSLKPEDTAVYYCAADGHKYRMDYWGQGTQVTVSS,low polyreactivity
4,QVQLVESGGGLVQAGGSLRLSCAASGIIFIFYDMGWYRQAPGKERELVATITSGTNTYADSVKGRFTISRDNAKNTVYLQMNSLKPEDTAVYYCNAGAVHKKPARDYWGQGTQVTVSS,low polyreactivity
5,QVQLVESGGGLVQAGGSLRLSCAASGIIFINYAMGWYRQAPGKEWELVAAITSSGGSTYYADSVKGRFTISRDNAKNTVYLQMNSLKPEDTAVYYCAAVSSYWGQGTQVTVSS,low polyreactivity
6,QVQLVESGGGLVQAGGSLRLSCAASGIIFIVNAMGWYRQAPGKERELVAAISNGGSTNYADSVKGRFTISRDNAKNTVYLQMNSLKPEDTAVYYCAADDEGWWVTNYDYWGQGTQVTVSS,low polyreactivity
7,QVQLVESGGGLVQAGGSLRLSCAASGIIFIYNGMGWYRQAPGKERELVATINWSGGNTYYADSVKGRFTISRDNAKNTVSLQMNSLKPEDTAVYDCAVRGSRFWGYDYWGQGTQVTVSS,low polyreactivity
8,QVQLVESGGGLVQAGGSLRLSCAASGIIFKSYAMGWSRQAPGKERELVAAITKRGGSTYYADSVKGRFTISRDNAKNTVYLQMNSLKPEDTAVYYCAADDGVGNTDDYWGQGTQVTVSS,high polyreactivity
9,QVQLVESGGGLVQAGGSLRLSCAASGIIFKYNAMGRYRQAPGKEREFVAAITGSGGSTYYADSVKGRFTISRDNAKNTVYLQMYSLKPEDTAVYYCARPQWRDWYGYWGQGTQVTVSS,low polyreactivity
10,QVQLVESGGGLVQAGGSLRLSCAASGIIFKYYAMGWYRQAPGKEREFVATISRRGGSTYYAYSVKGRFTISRDNAKNTVYLQMNSLKPEDTAVYYCATEYSPGREYKFNFWGQGTQVTVSS,high polyreactivity
11,QVQLVESGGGLVQAGGSLRLSCAASGIIFKYYAMGWYRQAPGKERELVAAISWTGDSTYADSVKGRFTISRDNAKNTVYLQMNSLKPEDTAVYYCAVAFRRVRSLGEGYWGQGTQVTVSS,low polyreactivity
12,QVQLVESGGGLVQAGGSLRLSCAASGIIFKYYAMGWYRQAPGKERELVAAITWSDTRTYYADSVKGRFTISRDNAMNTVYLQMNSLKPEDTAVYYCAVDEPSLYSWGGGYYWGQGTQVTVSS,high polyreactivity
13,QVQLVESGGGLVQAGGSLRLSCAASGIIFKYYAMGWYRQAPGKERELVAVISRSGGGTYYADSVKGRFTISRDNAKNTVYLQMNSLKPEDTAVYYCAAERSSGFDYWGQGTQVTVSS,high polyreactivity
14,QVQLVESGGGLVQAGGSLRLSCAASGIIFKYYARGWYRQAPGKERELVAGITSGGSTYYADSVKGRFTISRDNAKNTVYLQMNSLKPEDTAVYYCATRVRDGSQPQYRRRHSYDYWGQGTQVTVSS,high polyreactivity
15,QVQLVESGGGLVQAGGSLRLSCAASGIIFKYYVMGWYRQAPGKERELVAGIRSGGNTYYADSVKGRFTISRDNAKNTVYFQMNSLKPEDTAVYYCNARPQFRFTDSYDYWGQGTQVTVSS,high polyreactivity
16,QVQLVESGGGLVQAGGSLRLSCAASGIIFLLYSMGWYRQAPGKERELVAAITNGGRTNYADSVKGRFTISRDNAKNTVYLQMNSLKPEDTAVYYCNAVLSVPDYTLFDYWGQGTQVTVSS,low polyreactivity
17,QVQLVESGGGLVQAGGSLRLSCAASGIIFLTNAMGWSRPAPAKERELVAAITAIGGSTYYADSVKGRFTISRDNAKNTVYLQMNSLKPEDTAVYYCAADFSYVYYLYDYWGQGTQVTVSS,low polyreactivity
18,QVQLVESGGGLVQAGGSLRLSCAASGIIFNSYAMGWYRQAPGKERELVAAITRAGRTYYADSVKGRFPISRDNAKNTVDLQMNSLKPEDTAVYYCAAAFLSRVQGYDSWGQGTQVTVSS,high polyreactivity
19,QVQLVESGGGLVQAGGSLRLSCAASGIIFNYYAMGWYRQAPGKERELVAAITRGGRTNYADSVKGRFTISRDNAKNTVYLQMNSLKPEDTAVYYCNAPAFYTYKSFYAHSGYDYWGQGTQVTVSS,high polyreactivity
20,QVQLVESGGGLVQAGGSLRLSCAASGIIFPFYAMGWYRQAPGKERELVAAITSDGNTNYADSVKGRFTISRDNAKNTVYLQMNSLKPEDTAVYYCNAETQYGVLSWHSTRHDYWGQGTQVTVSS,low polyreactivity
21,QVQLVESGGGLVQAGGSLRLSCAASGIIFPFYAMGWYRQEPGKERELVAAITSGDDTYYADSVKGRFTISRDNAKNTVYLQMNSLKPEDTAVYYCAADSPYVVAWPYVWYFTFDYCGQGTQVTVSS,low polyreactivity
22,QVQLVESGGGLVQAGGSLRLSCAASGIIFPGNVMGWYRQAPGKERELVAGISSSGSRTYYADSVKGRFTISRDNAKNTVYLQMNSLKPEDTAVYYCAAEHQRSRGRRYYIGYDYWGQGTQVTVSS,low polyreactivity

row,Sequence,polyreactivity (PSR sort gate)
1,QVQLVESGGGLVQAGGSLRLSCAASGIIFPLYAMGWYRQAPGKDRELVADITRVGSTYYADSVKGRFTISRDNAKNTVYLQMNSLKPEDTAVYYCNKQKRWTYSHYFPTTYDYWGQGTQVTVSS,high polyreactivity
2,QVQLVESGGGLVQAGGSLRLSCAASGIIFPQYTMGWYRQAPGKERQLVAAITRSGGSTDYADSVKGRFTISRDNAKNTVYLQMNSLKPEDTAVYYCAAGWWRYKYPIGSSYNYWGQGTQVTVSS,high polyreactivity
3,QVQLVESGGGLVQAGGSLRLSCAASGIIFPSYAMGWYRQAPGKERELVAAINSSGGSTYYADSVKGRFTISRDNAKNTVYLQMNSLKPEDTAVYYCAAEADLQWYPYSFPYPYYYWGQGTQVTVSS,high polyreactivity
4,QVQLVESGGGLVQAGGSLRLSCAASGIIFPSYAMGWYRQAPGKERELVAAISLSGGRTYYADSVKGRFTISRDNAKNTVYLQMNSLKPEDTAVYYCAAYPTTRYSKYGYYWGQGTQVTVSS,high polyreactivity
5,QVQLVESGGGLVQAGGSLRLSCAASGIIFPSYAMGWYRQAPGKERELVAAISLSGGRTYYADSVKGRFTISRDNAKNTVYLQMYSLKPEDTAVYYCAAYPSTSYSKYGYYWGQGTLVTVSS,high polyreactivity
6,QVQLVESGGGLVQAGGSLRLSCAASGIIFPVYAMGWFRQAPGKERELVATIDSGGGTYYADSVKGRFTISRDNANNTVYLQMNSLKPEDTAVYYCNASHPPKAELAHWGQGTQVTVSS,low polyreactivity
7,QVQLVESGGGLVQAGGSLRLSCAASGIIFPVYAMGWYRQAPGKERELVAAISSSGSSTYYADSVKGRFTISRDNAKNTVYLQMNSLKPEDTAVYYCAAVRYGLRRMDYWGQGTQVTVSS,high polyreactivity
8,QVQLVESGGGLVQAGGSLRLSCAASGIIFPYNTMGWYRQAPGKERELVASIDDGGSTNYADSVKGRFTISRDNAKNTVYLQMNSLKPEDTAVYYCNADLFFIYVRQPGYDYWGQGTQVTVSS,low polyreactivity
9,QVQLVESGGGLVQAGGSLRLSCAASGIIFPYYAMGWYRQAPGKERELVAAISSRDGRTYYADSVKGRFTISRDNAKNTVYLQMNSLKPEDTAVYYCAARAVGGVRGYRYDYWGQGTQVTVSS,high polyreactivity
10,QVQLVESGGGLVQAGGSLRLSCAASGIIFPYYTMGWYRQAPGKERELVARITNGGRTYYADSVKGRFTISRDNAKNTVYLQMNSLKPEDTGVYYCAADSRYDYEYWGQGTQVTVSS,high polyreactivity
11,QVQLVESGGGLVQAGGSLRLSCAASGIIFQLYAMGWYRQAPGKERELVASITLSGTTTYYADSVKGRVTISRDNAKNTVYLQMNSLKPEDTAVYYCAKEYYYWGQGTQVTVSS,low polyreactivity
12,QVQLVESGGGLVQAGGSLRLSCAASGIIFQRNDMGRYRQAPGKERELVANIRDGGITYADSVKGRFTISRDNAKNTVYLQMNSLKPEDTAVYYCARDDTSPGYGDQSSNAAYYYWGQGTQVTVSS,low polyreactivity
13,QVQLVESGGGLVQAGGSLRLSCAASGIIFQRNDMGWYRQAPGKERELVANIRDGGITYADSVKGRFTISRDNAKNTVYLQMNSLKPEDTAVYYCARDDTSPGYGDQSFNAAYYYWGQGTQVTVSS,low polyreactivity
14,QVQLVESGGGLVQAGGSLRLSCAASGIIFQSYTMGWYRPATGKERELVAAIDSGGSTYYADSVKGRFTISRDNAKNTVYLQMNSLKREDTAVYYCAAEPDTYWYTFYYWGQGTQVTVSS,low polyreactivity
15,QVQLVESGGGLVQAGGSLRLSCAASGIIFQWYAMGWYSQAPGKERELVAAINSDGSTYYADSVKGRFTISRDNAKNTVYLQMNSLIPEDTAVYYCAADFIPLIGFDYWGQGTQVTVSS,low polyreactivity
16,QVQLVESGGGLVQAGGSLRLSCAASGIIFQYYAMGWYRPAPGKEREWVAAITSSGDRTYYADSVKGRFTISRDNAKNNVILQMNSLNPEDTAVYYCNAVYYLDYHYGYEFGYWGQGTQVTVSS,high polyreactivity
17,QVQLVESGGGLVQAGGSLRLSCAASGIIFRDYGMGWSRQAPGKEREFVATITYSGGGTYYADSVKGRFTISRDKAKNTVYLQMNSLKPEDTAVYYCAAYPFYYDLAYDYWGQGTQVTVSS,low polyreactivity
18,QVQLVESGGGLVQAGGSLRLSCAASGIIFRGNVMGWSRQAPGKERELVAAISGSGGRTYYADSVKGRFTISRDNAKNTVYLQMNSLKPEDTAVYYCNADKAIRYDYWGQGTQVTVSS,high polyreactivity
19,QVQLVESGGGLVQAGGSLRLSCAASGIIFRHNAMGWYRQAPGKERELVAAISSGGNTYYADSVKGRFTISRDNAKNTVYLQMNSLKPEDTAVYYCAADVQDRYHRAWYDYWGQGTQVTVSS,low polyreactivity
20,QVQLVESGGGLVQAGGSLRLSCAASGIIFRLNAMGWYRQAPGKERELVAAIRRRGGSTYYADSVKGRFTISRDIAKNTVYLQMNSLKPEDTAVYYCAKDPHGSDFGYWGQGTQVTVSS,low polyreactivity
21,QVQLVESGGGLVQAGGSLRLSCAASGIIFRLNTMGWYRQAPGKERELVAAITSGGSTQYADSVKGRFTISRDNAKNTVYLQMNSLKPEDSAVYYCAAGHRANYWAWHFYYPGDFWGQGTQVTVSS,low polyreactivity
